Laboratory results: PMC10784544, “Ferric reduction by a CYBDOM protein counteracts increased iron availability in root meristems induced by phosphorus deficiency” (Nature Communications, 2024)

Substrate: O=C1O[C@H]([C@@H](O)CO)C(O)=C1O
Experiment: two-electrode voltage clamp in Xenopus oocytes, trans-plasma membrane current
Type: cell-based, Arabidopsis thaliana
Conditions: cytosolic electron donor, raised by injection; ferricyanide as extracellular electron acceptor

B1: HYP1 (… TO LOW P1) (Arabidopsis thaliana) (protein)
chain: QSLCNTHRFTNNLAFADCSDLSALGSFLHWTYNEQNGTVSIAYRHPGTSASSWVAWGLNPSSTQMVGTQALVAFTNTTTNQFQAYTSSVSSYGTRLERSSLSFGVSGLSATLVSGEVTIFATLELSPNLITANQLWQVGPVVNGVPASHQTSGDNMRSSGRIDFRTGQASAGGGGSGDRLRKRNTHGVLNAVSWGVLMPMGAMMARYMKVFADPTWFYLHIAFQVSGYVIGVAGWATGIKLGNDSPGTSYSTHRNLGIALFTFATLQVFALLVRPKPDHKYRTYWNVYHHTVGYTTIILSIVNIFKGFDILDPEDKWRWAYIGILIFLGACVLILEPLTWFIVLRRKSRGGNTVAAPTSSKYSNGVNGTTTTGPHHQDA
notes: cDNA in pGEMHE, cRNA-injected Xenopus laevis oocytes
Km: 4 mM
